For test [1], the target named is wild-type SARS-CoV-2 Wuhan Hu-1 receptor-binding domain (residues 319-533) (SARS-CoV-2 Wuhan-Hu-1). Nature of the test: BLI. As to conditions: both partners purified.
The target of test [2] is SARS-CoV-2 RBD (RWT), wild-type Wuhan Hu-1 receptor-binding domain, residues 319-533 (SARS-CoV-2 Wuhan Hu-1). The test can be described thus: BLI. As to conditions: both partners purified.

B1: C022 (antibody, V domains shown)
VH: QVQLQESGPGLVKPSETLSVTCTVSGGSISSSRYYWGWIRQPPGKGLEWIGSIYYSGSTYYNPSLKSRVTISVDTSKNQFSLKLSSVTAADTAVYYCARHAAAYYDRSGYYFIEYFQHWGQGTLVTVSS
VL: DIQMTQSPSTLSASVGDSVTITCRASQSISSWLAWYQQKPGKAPKLLIYKASSLESGVPSRFSGSGSGTEFTLTISSLQPDDFATYYCQQYNNYRYTFGQGTKLEIK
notes: also called S2X259-like class 4 antibody
B1: in test [1], the binding result is on record as “binds”.

B2: 1-16 (antibody, V domains shown)
VH: QVQLVQSGAEVKKPGASVKVSCKASGYTFTSYYMHWVRQAPGQGLEWMGIINSSGGSTSYAQKFQGRVTMTRDTSTSTVYMELSSLRSEDTAVYYCARPPRNYYDRSGYYQRAEYFQHWGQGTLVTVSS
VL: DIQLTQSPSSLSASVGDRVTITCQASQDISNYLNWYQQRPGKAPKLLIYDASNLETGVPSRFSGSGSGTDFTFTISSLQPEDIATYYCQQYDNPPLTFGGGTKLEIK
notes: as for B1
Consider B2, for which, in test [1], the binding result is “binds”.

B3: CB6 (class 1 RBD-directed antibody) (antibody, V domains shown)
VH: EVQLVESGGGLVQPGGSLRLSCAASGFTVSSNYMSWVRQAPGKGLEWVSVIYSGGSTFYADSVKGRFTISRDNSMNTLFLQMNSLRAEDTAVYYCARVLPMYGDYLDYWGQGTLVTVSS
VL: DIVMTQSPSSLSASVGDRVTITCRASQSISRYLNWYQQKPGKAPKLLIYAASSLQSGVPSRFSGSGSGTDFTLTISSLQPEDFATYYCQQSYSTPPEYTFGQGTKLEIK
As a reminder, the koff is a measure of how fast the partners let go of each other. Low values mean a long-lived complex, high ones a short-lived complex. The molecule B3 registered a dissociation rate constant (koff) in test [2] of 0.013 s⁻¹.

B4: CB6 (antibody, V domains shown)
VH: B3 VH
VL: not shown
Turning to B4, the binding result in test [1] is “binds”.

B5: CR3022 (class 4 RBD-directed antibody) (antibody, V domains shown)
VH: QMQLVQSGTEVKKPGESLKISCKGSGYGFITYWIGWVRQMPGKGLEWMGIIYPGDSETRYSPSFQGQVTISADKSINTAYLQWSSLKASDTAIYYCAGGSGISTPMDVWGQGTTVTVSS
VL: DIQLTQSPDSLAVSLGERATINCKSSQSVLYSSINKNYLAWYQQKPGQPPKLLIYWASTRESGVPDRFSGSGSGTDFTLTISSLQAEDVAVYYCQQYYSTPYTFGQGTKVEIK
notes: IgG
For the molecule B5, the koff in test [2] came out at 0.016 s⁻¹.

B6: CR3022 (antibody, V domains shown)
VH: B5 VH
VL: not shown
notes: also called class 4 antibody
Consider B6, for which the binding result in test [1] is on record as “binds”.

B7: COVA2-15 (antibody, V domains shown)
VH: QVQLLESGGGLVQPGGSLRLSCAASGFTFSSYAMSWVRQAPGKGLEWASAISGSGGSTYYADSVEGRFTISRDNSKNTLYLQMNSLRAEDTAVYYCAKDTGYCGDDCYIKLIRGGPDYWGQGTLVTVSS
VL: DIVMTQSPLSLPVTLGQPASISCRSSQSLVYSDGNTFLNWFQQRPGQSPRRLIYQVSNRDSGVPDRFSGSGSGTDFTLKISRVEAEDVGVYYCMQGTHWPRTFGQGTKLEIK
notes: also called class 2 antibody
Regarding B7, the binding result in test [1] is on record as “binds”.

B8: SA55 (antibody, V domains shown)
VH: QVQLVQSGAEVKKPGSSVKVSCKASGGTFRSHVISWVRQAPGQGLEWMGGFIPLFGTTIYAQAFQGRVMISADESTSTAYMELSSLRSEDTAVYFCARLFPNGDPNSPEDGFDIWGQGTLVTVSS
VL: DIQMTQSPSSLSASVGDRVTITCQASQDIGNYLNWYQQKPGKAPKLLIYDASHLETGVPSRFSGSGSGTDFTFTISSLQPEDIATYYCQRYDDLPSYTFGQGTKVEIK
notes: as for B1
Turning to B8, the binding result in test [1] is on record as “binds”.

B9: S2X259 IgG (antibody, V domains shown)
VH: QVQLVQSGAEVKKPGSSVKVSCKASGGIFNTYTISWVRQAPGQGLEWMGRIILMSGMANYAQKIQGRVTITADKSTSTAYMELTSLRSDDTAVYYCARGFNGNYYGWGDDDAFDIWGQGTLVTVYS
VL: QTVLTQPPSVSGAPGQRVTISCTGSNSNIGAGYDVHWYQQLPGTAPKLLICGNSNRPSGVPDRFSGSKSGTSASLAITGLQAEDEADYYCQSYDSSLSGPNWVFGGGTKLTVL
notes: also called class 4 mAb
In turn, B9 displayed a koff in test [1] of 0.0011 s⁻¹.

B10: fragment antigen-binding region (Fab) of S2X259 (Fab, V domains shown)
VH: B9 VH
VL: B9 VL
notes: also called S2X259 Fab
A word on the Kd: it is the equilibrium constant for the complex coming apart. B10 displayed a Kd in test [1] of 0.97 ± 0.5 nM.

B11: C002 (antibody, V domains shown)
VH: EVQLVESGGGVVQPGRSLRLSCAASGFTFSIYGMHWVRQAPGKGLEWVAVISYDGSNKYYADSVKGRFTISRDNSKNTLYLQMNSLRAEDTAVYYCAKEGRPSDIVVVVAFDYWGQGTLVTVSS
VL: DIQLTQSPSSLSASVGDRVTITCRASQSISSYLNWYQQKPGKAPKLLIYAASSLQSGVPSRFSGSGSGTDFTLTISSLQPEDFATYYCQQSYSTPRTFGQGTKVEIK
With B11, in test [1], the binding result was “binds”.

For the origin of these results see paper PMC11503491 (ACS Central Science, 2024).
